Experimental findings from paper PMC7060329, “Pathway-specific enzymes from bamboo and crop leaves biosynthesize anti-nociceptive C-glycosylated flavones” (Communications Biology, 2020) are described below.

One may read the Km as the concentration of substrate that gives half-maximal velocity.

Data set [1] addresses T1, SbF2H (CYP93G3; SbCYP93G3) (Sorghum bicolor, UniProt C5X6I4).
T1 construct: gene SORBI_3002G000400; N-terminal transmembrane region cut (borders not in text) and replaced with 2B1dH tag; codon-optimized; in E. coli with AtCPR2
T1 sequence (C5X6I4 42-541 limits assumed): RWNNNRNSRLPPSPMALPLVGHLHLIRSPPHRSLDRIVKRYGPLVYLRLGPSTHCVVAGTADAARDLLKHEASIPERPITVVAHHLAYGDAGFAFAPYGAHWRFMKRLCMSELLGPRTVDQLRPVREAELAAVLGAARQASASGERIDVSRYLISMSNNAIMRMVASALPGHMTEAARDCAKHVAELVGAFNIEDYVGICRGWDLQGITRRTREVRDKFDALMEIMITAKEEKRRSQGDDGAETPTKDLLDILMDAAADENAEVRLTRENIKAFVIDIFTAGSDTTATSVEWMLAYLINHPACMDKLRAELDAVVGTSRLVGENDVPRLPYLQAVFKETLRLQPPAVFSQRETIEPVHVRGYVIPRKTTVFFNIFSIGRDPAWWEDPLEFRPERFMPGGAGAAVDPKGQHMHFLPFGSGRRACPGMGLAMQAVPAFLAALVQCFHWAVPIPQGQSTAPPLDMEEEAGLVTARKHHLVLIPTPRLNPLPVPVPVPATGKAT
The experiment in a line: E. coli whole-cell conversion, LC-MS of downstream vitexin/isovitexin. The format is cell-based. The settings on record: coexpressed AtCPR2 and PhUGT708A43; naringenin made in vivo, 22 °C.

Substrate in data set [2]: O=C(CCc1ccc(O)cc1)c1c(O)cc(O)cc1O
The experiment in a line: HPLC of C-glucoside product, Michaelis-Menten fit. The settings on record: 400 μM UDP-glucose, 100 mM NaCl, 20 mM Tris-HCl pH 8.0, 37 °C, 20 min. The format is biochemical, Phyllostachys edulis.

Substrate in data set [3]: O=C1CC(O)(c2ccc(O)cc2)Oc2cc(O)cc(O)c21
The experiment in a line: HPLC of C-glucoside product, Michaelis-Menten fit. The format is biochemical, Phyllostachys edulis. As to conditions: 400 μM UDP-glucose, 100 mM NaCl, 20 mM Tris-HCl pH 8.0, 37 °C, 20 min.

For the molecule `O=C1C[C@@H](c2ccc(O)cc2)Oc2cc(O)cc(O)c21` [Nar, naringenin], the “E. coli whole-cell conversion, LC-MS of downstream vitexin/isovitexin” value in data set [1] was “truncated ZmF2H/AtCPR2 (sCZ2) and truncated SbF2H/AtCPR2 (sCZ29)”.

B1: PhUGT708A43 (PhCGT1) (Phyllostachys edulis) (protein)
chain: MPTSGGRTGDRPHVILLPSAGMGHLVPFSRLAVALSSGHGCDVSVVAVLPTVSAAESRHLQGLLDASPAVRRLDLHLAPFDESEFPGADPFFLRFEAMRRSAPLLGPLLADTGASALVTDIALASVVIPVAKEIHLPCYVLFTASAAMLSFCAYFPTYLDTNAGRVVGDVDIPGVYRIPKASIPQALHDPNHLFTRQFVANGQDLAKADGVLVNTFDALELEAVTALRQGSVAAGFPPVFSVGPLVTVNLPAGEAAKESGNDYMYWLDAQPAQSVVYVSFGSRKAISRDQVRELAIGLEASGQPFLWVVKSTVVDRDDSAELSELLGEGFLERVQGQGFVTKAWVEQEEVLKHESIGLFISHCGWNSVTEAAASGVPVLAWPRFGDQRVNAGVVARGGLGVWVERWSWEGEEDVVSGEEIAEKVKAVMADETVRKKAASVGEAAVKEFADGGTSYRSLTEFVRRCRDLAVLD
notes: full-length ORF, pET28a (pCZ86), recombinant from E. coli, purified
For B1, the Km in data set [2] is 15.83 ± 6.98 µM; in data set [3], 1.75 ± 0.66 µM.
